Results on nine substances are retold here after PMC7935953, “Insights on autophagosome–lysosome tethering from structural and biochemical characterization of human autophagy factor EPG5” (Communications Biology, 2021).

Where no end group is shown, it is not given here.

One series concerns the target T1, LC3B (Homo sapiens, UniProt Q9GZQ8).
T1 construct: made in house; host or cells: E. coli (T7 Express)
The series can be described thus: ITC of hEPG5 LIR peptides titrated into His-LC3B. The class given is binding. Particulars: 0.6 mM peptide into 0.06 mM His-LC3B, 20 steps, 25 °C, 50 mM Tris pH 7.0, 25 mM NaCl, one-site model, mean of triplicates. The protocol: (§1) For ITC studies, N-terminally His-tagged LC3 and GABARAP proteins were expressed in E. coli (T7 Express) cells. The cells were induced with 1 mM IPTG for 4 h at 25 °C. The cell pellets were resuspended, sonicated, and centrifuged, as described above with buffer G (50 mM Tris pH 7.0, 150 mM NaCl, and 2 mM PMSF). The supernatant was incubated with HisPur^TMNi-NTA resin (Thermo Scientific) pre-equilibrated with buffer G at 4 °C for 1 h. The resin was washed five times with buffer H (50 mM Tris pH 7.0, 150 mM NaCl) and subsequently ten times with buffer H containing 30 mM imidazole. The bound proteins were eluted with buffer H containing 100 mM imidazole once, then 300 mM imidazole for four times, and 500 mM imidazole once. […]
(§2) ITC experiments of hEPG5-LIR1 peptide titrating into His-LC3/GABARAP proteins were performed using ITC200 (GE Healthcare now Malvern Panalytical), while experiments of hEPG5-LIR2 peptide titrating into His-LC3/GABARAP proteins were performed using MicroCal PEAQ-ITC (Malvern Panalytical). […] The ITC data were analyzed with one-site binding model using Origin 7.0 (OriginLab). […]
(§3) All experiments were performed in triplicates. […] Intensity of His-FLAG-hEPG5, GST (control), and GST-LC3/GABARAP subfamily proteins in pull-down assays was quantified using Bio-Rad Image Lab Software v6.0. […]

Another series concerns the target T2, LC3C (Homo sapiens, UniProt Q9BXW4).
T2 construct: made in house; host or cells: E. coli (T7 Express)
Kind of series: ITC of hEPG5 LIR peptides titrated into His-LC3C. The class given is binding. Conditions: 0.6 mM peptide into 0.06 mM His-LC3C, 20 steps, 25 °C, 50 mM Tris pH 7.0, 25 mM NaCl, one-site model, triplicates. How it is done:
as §1, §2, §3

A further series addresses T3, GABARAP (Homo sapiens, UniProt O95166).
T3 construct: made in house; host or cells: E. coli (T7 Express)
The series can be described thus: GST pull-down of hEPG5 (wild type and mutants) with GST-GABARAP bait. In kind it is binding. Conditions: anti-FLAG western blot, compared to wild-type hEPG5, triplicates. How it is done:
(§4) For GST pull-down analysis, N-terminally GST-tagged LC3 and GABARAP proteins were expressed in Escherichia coli (T7 Express) cells. The cells were induced with 1 mM isopropyl β-d-1-thiogalacpyranoside [IPTG] for 4 h at 25 °C. The cell pellets were resuspended in 25 mL buffer E (50 mM Tris pH 8.0, 150 mM NaCl, and 1 mM PMSF). Cells were then sonicated for four cycles consisting of 1 min sonication followed by 2 min cooling on ice, with duty cycle set to 50% and output control at 5. Cell lysate was then centrifuged at 20,950 × g for 40 min at 4 °C. Supernatant was incubated for 1 h at 4 °C with glutathione resin (50% slurry, GenScript) pre-equilibrated with buffer E, while gently inverting. Resin was returned to the column and washed with buffer E. Proteins were eluted with 10 mM reduced glutathione (GoldBio) in buffer F (50 mM Tris pH 8.0, 150 mM NaCl). Free glutathione was removed by dialysis in buffer F and protein concentration was measured by spectrophotometry (NanoDrop, Thermo Scientific). Glycerol was added to a final concentration of 5%, then solutions were aliquoted and stored at −70 °C.
Pulldowns were performed with a 50 µL slurry of glutathione resin (50% slurry, GenScript). The resin was equilibrated with buffer N (50 mM Tris pH 8.0, 150 mM NaCl, 5% glycerol, 0.01% Tween20, and 0.5 mM DTT) and the beads were incubated with equal amounts (200–240 µg) of purified GST, GST-LC3A/B/C, and GST-GABARAP/L1/L2 bait for 10 min at 4 °C with gentle inversion. The tubes were centrifuged at 500 × g for 2 min, followed by removal of excess bait protein in the supernatant. The resin was then incubated with equal amounts (25–30 µg) of purified His-FLAG-hEPG5, truncated hEPG5 or its corresponding mutants (W550A, W567A, W550A/W567A, F794A, or Q336R). The tubes were once again centrifuged at 500 × g for 2 min, followed by removal of the supernatant. The resin was washed with 1 mL buffer N, centrifuged at 500 × g for 2 min, followed by removal of the excess buffer with five washes. After the final wash and removal of the supernatant, 50 µL 2× SDS loading dye was added to each tube. The tubes were then heated at 65 °C for 10 min, loaded onto two 6–15% gradient SDS–PAGE gels, and stained with Coomassie Blue. For western blots, samples were transferred from a 6–15% gradient SDS–PAGE gel to a nitrocellulose membrane and blocked with Odyssey Blocking Buffer (LI-COR). Mouse anti-FLAG was used as the primary antibody (1:2000; Sigma-Aldrich) and donkey anti-mouse IRDye 680LT as the secondary antibody (1:7500; LI-COR) for visualization on a ChemiDoc Imager (Bio-Rad). Experiments were performed in triplicates.
All experiments were performed in triplicates. ITC data represents means or means ± SEM. Intensity of His-FLAG-hEPG5, GST (control), and GST-LC3/GABARAP subfamily proteins in pull-down assays was quantified using Bio-Rad Image Lab Software v6.0. Statistics were performed using Prism 7 (GraphPad).
(In general: In western blotting, separated proteins are transferred to a membrane and probed.)

Series [1] deals with GABARAP subfamily (GABARAP, GABARAPL1, and GABARAPL2). The series can be described thus: GST pull-down of hEPG5, average over GABARAP subfamily baits. In kind it is binding, human. How it is done:
as §4
Pulldowns were performed with a 50 µL slurry of glutathione resin (50% slurry, GenScript). […]
as §3

Series [2] can be described thus: Differential scanning fluorimetry (thermal shift assay) of hEPG5. The class given is physicochemical. Conditions: 0.4 mg/mL protein, 10× Sypro Orange, 50 mM Tris pH 8.0, 150 mM NaCl, maximum of first derivative, triplicates. How it is done:
Purified wild type His-FLAG-hEPG5 and His-FLAG-hEPG5^Q336R at 0.4 mg/mL were mixed with 10× Sypro Orange dye in buffer F in a final volume of 25 µL. The fluorescence was measured using the MiniOpticon Real-Time PCR system in triplicates. Melting temperature was calculated using the maximum of the first derivative with Prism 7 (GraphPad).
(DSF heats the sample and reads unfolding from a dye or from intrinsic fluorescence.)

T3 sequence (O95166 whole entry): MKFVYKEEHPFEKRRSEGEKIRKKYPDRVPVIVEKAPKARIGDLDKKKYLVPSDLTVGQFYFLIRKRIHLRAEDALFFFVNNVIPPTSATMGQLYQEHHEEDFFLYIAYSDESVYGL
T2 sequence (Q9BXW4 whole entry): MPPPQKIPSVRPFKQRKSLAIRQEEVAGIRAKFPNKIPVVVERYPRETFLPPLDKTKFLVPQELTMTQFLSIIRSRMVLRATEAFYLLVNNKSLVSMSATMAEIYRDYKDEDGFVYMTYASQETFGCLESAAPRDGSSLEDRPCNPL

For the substance GSGTWTLVDEG [LIR1], the “Kd with LC3B” value on LC3B is recorded as “bind weakly”. Besides, the “Kd with LC3C” value at LC3C is given as “bind weakly”.
Take “W550A/W567A: hEPG5 double mutant of both tandem LIR motifs”: the “binding to GABARAP in GST pull-down, in words” value (from here on “binding to GABARAP”) with GABARAP is listed as “completely abolished GABARAP binding”.
On the same count and under the same terms, then “W550A: hEPG5 mutant, first aromatic residue of LIR1 replaced by alanine”, with “severely”; and “W567A: hEPG5 mutant, first aromatic residue of LIR2 replaced by alanine”, with “mildly”.
Turning to “hEPG5: recombinant full-length human EPG5, His-FLAG tagged, expressed in a baculovirus-insect cell system”, the “hEPG5 precipitated by GABARAP subfamily compared to LC3 subfamily” value in series [1] (fluorescence-based western blotting, triplicates) was determined as 2.5 times. The “Average Ratio of GABARAP Family: LC3 Family” value in series [1] (hEPG5 binding ratio, average of 3 runs) came to 2.51.
“hEPG5^F794A: hEPG5 mutant with mutation to the third putative LIR motif”: the “binding to GABARAP” value with GABARAP is reported as “binds GABARAP as strongly as wild-type hEPG5”.
Consider “hEPG5^Q336R: hEPG5 carrying the Vici syndrome mutation Gln336Arg”, for which the “binding to GABARAP” value in the series with GABARAP was “did not affect hEPG5’s ability to bind to GABARAP and other human ATG8 proteins”. In addition, in series [2], the “melting temperature higher than wild-type hEPG5” value was roughly 1.5 °C.
For the substance “hEPG5^Δ1–548: hEPG5 truncation devoid of the region between the N-terminus and the two LIR motifs”, the “binding to GABARAP” value in the series with GABARAP is on record as “precipitated by GABARAP at a higher level compared to wild-type hEPG5”.
The same measure, in the same setting: then “hEPG5^Δ1770–2579: hEPG5 truncation mutant which excludes the entire C-terminal region”, with “binds GABARAP equally well compared to wild-type hEPG5”.
